# Patent US20140363522A1
# Assays:
# Test in all cases: cell-based or functional assay
# [1] = target: interleukin (IL)-6 (human) (UniProt P05231)
# [2] = target: interleukin (IL)-8 (human) (UniProt P10145)
# [3] = target: monocyte chemoattractant protein-1 (human) (UniProt P13500)
# [4] = target: tissue inhibitor of metalloproteinases-1 (human) (UniProt P01033)
# tissue inhibitor of metalloproteinases-1 (human), sequence (P01033 24-207 limits assumed): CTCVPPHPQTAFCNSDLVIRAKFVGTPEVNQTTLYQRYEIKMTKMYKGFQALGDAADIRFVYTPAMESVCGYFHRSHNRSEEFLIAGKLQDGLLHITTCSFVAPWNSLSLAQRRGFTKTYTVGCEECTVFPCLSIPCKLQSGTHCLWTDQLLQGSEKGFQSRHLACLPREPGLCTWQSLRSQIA
# interleukin (IL)-8 (human), sequence (P10145 28-99 limits assumed): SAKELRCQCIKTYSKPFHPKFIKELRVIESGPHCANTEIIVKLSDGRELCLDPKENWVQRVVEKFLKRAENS
# interleukin (IL)-6 (human), sequence (P05231 30-212 limits assumed): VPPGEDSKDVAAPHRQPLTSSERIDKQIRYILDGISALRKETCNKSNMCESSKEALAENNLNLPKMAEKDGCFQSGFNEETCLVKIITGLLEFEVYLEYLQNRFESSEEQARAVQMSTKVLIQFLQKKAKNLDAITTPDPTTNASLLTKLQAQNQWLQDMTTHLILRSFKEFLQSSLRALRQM
# monocyte chemoattractant protein-1 (human), sequence (P13500 24-99 limits assumed): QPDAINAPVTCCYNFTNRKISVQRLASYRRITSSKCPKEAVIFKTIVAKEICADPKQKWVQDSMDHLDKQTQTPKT
substance,measurement,setting,value
IL-6 inhibitory antibody (R&D Systems AB206NA),"decrease in in vitro ovarian cancer cell homing toward adipocytes (Matrigel plug, fluorescence)",[1],> 50%
IL-8 inhibitory antibody (R&D Systems AB208NA),"decrease in in vitro ovarian cancer cell homing toward adipocytes (Matrigel plug, fluorescence)",[2],> 50%
MCP-1 inhibitory antibody (R&D Systems AB279NA),"decrease in in vitro ovarian cancer cell homing toward adipocytes (Matrigel plug, fluorescence)",[3],> 50%
TIMP-1-specific inhibitory antibody (R&D Systems AF970),"decrease in in vitro ovarian cancer cell homing toward adipocytes (Matrigel plug, fluorescence)",[4],> 50%
